The source of these data is paper PMC7971519.

For this test, the target named is PRRSV nonstructural protein 2 transframe product (nsp2TF) (porcine reproductive and respiratory syndrome virus 2 (PRRSV-2), isolate SD95-21). The test is described as follows: co-IP; lysates of PRRSV-infected MARC-145 cells collected at 8, 10 and 12 hpi; IP with rabbit anti-nsp2TF pAb or anti-nsp2 pAb (C-terminal peptides); blots probed with anti-GP5 and anti-M mAbs; densitometry; mock-infected lysate as control.

In turn, “PRRSV membrane (M) protein (natural protein)” displayed a fold more M protein co-precipitated than in the nsp2 IP, 8 hpi of 3.38 fold; a fold more M protein co-precipitated than in the nsp2 IP, 10 hpi of 3.44 fold; a fold more M protein co-precipitated than in the nsp2 IP, 12 hpi of 2.77 fold.
In turn, “PRRSV GP5 glycoprotein (natural protein)” gave a fold more GP5 co-precipitated than in the nsp2 IP, 8 hpi of 3.39 fold; a fold more GP5 co-precipitated than in the nsp2 IP, 10 hpi of 3.26 fold; a fold more GP5 co-precipitated than in the nsp2 IP, 12 hpi of 3.36 fold.
